From US20180291110A1 (Hoffmann-La Roche, published 2018)

B1: 2/99 VH21/VL6 (antibody, V domains shown)
VH: QSMQESGPGLVKPSQTLSLTCTVSGFSLSSYAMSWIRQHPGKGLEWIGYIWSGGSTDYASWAKSRVTISVDTSKNQVSLKLSSVTAADTAVYYCARRYGTSYPDYGDANGFDPWGQGTLVTVSS
VL: AIQLTQSPSSLSASVGDRVTITCRASQSISSYLSWYQQKPGKAPKLLIYRASTLASGVPSRFSGSGSGTDFTLTISSLQPEDFATYYCQQSYSSSNVDNTFGGGTKVEIK
B2: 2/99 VH17/VL7 (antibody, V domains shown)
VH: QQLQESGPGLVKPSETLSLTCTVSGFSLSSYAMSWVRQPPGKGLEWIGYIWSGGSTDYNPSLKSRVTISKDTSKNQVSLKLSSVTAADTAVYYCARRYGTSYPDYGDANGFDPWGPGTLVTVSS
VL: AIQLTQSPSSLSASVGDRVTITCRASQSISSYLAWYQQKPGKAPKLLIYRASTLASGVPSRFSGSGSGTDFTLTISSLQPEDFATYYCQQSYSSSNVDNTFGGGTKVEIK
B3: 2/99 VH8/VL7 (antibody, V domains shown)
VH: QQLVETGGGLIQPGGSLRLSCAASGFSLSSYAMSWVRQAPGKGLEWIGYIWSGGSTDYASWAKGRFTISKTSTTLYLQMNSLRAEDTAVYYCARRYGTSYPDYGDANGFDPWGQGTLVTVSS
VL: AIQLTQSPSSLSASVGDRVTITCRASQSISSYLAWYQQKPGKAPKLLIYRASTLASGVPSRFSGSGSGTDFTLTISSLQPEDFATYYCQQSYSSSNVDNTFGGGTKVEIK
B4: 2/99 VH1/VL8 (antibody, V domains shown)
VH: VQLVETGGGLIQPGGSLRLSCAASGFSLSSYAMSWVRQAPGKGLEWVGYIWSGGSTDYADSVKGRFTISRDNSKNTLYLQMNSLRAEDTAVYYCARRYGTSYPDYGDANGFDPWGQGTLVTVSS
VL: AYQLTQSPSSLSASVGDRVTITCRASQSISSYLSWYQQKPGKAPKLLIYRASTLASGVPSRFSGSGSGTDFTLTISSLQPEDFATYYCQQSYSSSNVDNTFGGGTKVEIK
B5: 2/99 VH22/VL6 (antibody, V domains shown)
VH: QSMQESGPGLVKPSQTLSLTCTVSGFSLSSYAMSWVRQHPGKGLEWIGYIWSGGSTDYASWAKSRVTISVDTSKNQVSLKLSSVTAADTAVYYCARRYGTSYPDYGDANGFDPWGQGTLVTVSS
VL: AIQLTQSPSSLSASVGDRVTITCRASQSISSYLSWYQQKPGKAPKLLIYRASTLASGVPSRFSGSGSGTDFTLTISSLQPEDFATYYCQQSYSSSNVDNTFGGGTKVEIK
B6: 2/99 VH7/VL7 (antibody, V domains shown)
VH: QQLVETGGGLIQPGGSLRLSCAASGFSLSSYAMSWVRQAPGKGLEWIGYIWSGGSTDYASWAKGRFTISRDNSKNTLYLQMNSLRAEDTAVYYCARRYGTSYPDYGDANGFDPWGQGTLVTVSS
VL: AIQLTQSPSSLSASVGDRVTITCRASQSISSYLAWYQQKPGKAPKLLIYRASTLASGVPSRFSGSGSGTDFTLTISSLQPEDFATYYCQQSYSSSNVDNTFGGGTKVEIK
B7: 2/99 VH2/VL7 (antibody, V domains shown)
VH: EVQLVETGGGLIQPGGSLRLSCAASGFSLSSYAMSWVRQAPGKGLEWVGYIWSGGSTDYADSVKGRFTISRDNSKNTLYLQMNSLRAEDTAVYYCARRYGTSYPDYGDANGFDPWGQGTLVTVSS
VL: AIQLTQSPSSLSASVGDRVTITCRASQSISSYLAWYQQKPGKAPKLLIYRASTLASGVPSRFSGSGSGTDFTLTISSLQPEDFATYYCQQSYSSSNVDNTFGGGTKVEIK
B8: 2/99 VH21/VL7 (antibody, V domains shown)
VH: QSMQESGPGLVKPSQTLSLTCTVSGFSLSSYAMSWIRQHPGKGLEWIGYIWSGGSTDYASWAKSRVTISVDTSKNQVSLKLSSVTAADTAVYYCARRYGTSYPDYGDANGFDPWGQGTLVTVSS
VL: AIQLTQSPSSLSASVGDRVTITCRASQSISSYLAWYQQKPGKAPKLLIYRASTLASGVPSRFSGSGSGTDFTLTISSLQPEDFATYYCQQSYSSSNVDNTFGGGTKVEIK
B9: 2/99 VH16/VL7 (antibody, V domains shown)
VH: QQLQESGPGLVKPSETLSLTCTVSGFSLSSYAMSWVRQPPGKGLEWIGYIWSGGSTDYNPSLKSRVTISVDTSKNQVSLKLSSVTAADTAVYYCARRYGTSYPDYGDANGFDPWGPGTLVTVSS
VL: AIQLTQSPSSLSASVGDRVTITCRASQSISSYLAWYQQKPGKAPKLLIYRASTLASGVPSRFSGSGSGTDFTLTISSLQPEDFATYYCQQSYSSSNVDNTFGGGTKVEIK
B10: 2/99 VH18/VL7 (antibody, V domains shown)
VH: QVQLQESGPGLVKPSQTLSLTCTVSGFSLSSYAMSWIRQHPGKGLEWIGYIWSGGSTDYAPSLKSRVTISVDTSKNQFSLKLSSVTAADTAVYYCARRYGTSYPDYGDANGFDPWGQGTLVTVSS
VL: AIQLTQSPSSLSASVGDRVTITCRASQSISSYLAWYQQKPGKAPKLLIYRASTLASGVPSRFSGSGSGTDFTLTISSLQPEDFATYYCQQSYSSSNVDNTFGGGTKVEIK
B11: 2/99 VH19/VL7 (antibody, V domains shown)
VH: QSMQESGPGLVKPSQTLSLTCTVSGFSLSSYAMSWIRQHPGKGLEWIGYIWSGGSTDYAPSLKSRVTISVDTSKNQFSLKLSSVTAADTAVYYCARRYGTSYPDYGDANGFDPWGQGTLVTVSS
VL: AIQLTQSPSSLSASVGDRVTITCRASQSISSYLAWYQQKPGKAPKLLIYRASTLASGVPSRFSGSGSGTDFTLTISSLQPEDFATYYCQQSYSSSNVDNTFGGGTKVEIK
B12: 2/99 VH6/VL7 (antibody, V domains shown)
VH: QQLVETGGGLIQPGGSLRLSCAASGFSLSSYAMSWVRQAPGKGLEWIGYIWSGGSTDYADSVKGRFTISRDNSKNTLYLQMNSLRAEDTAVYYCARRYGTSYPDYGDANGFDPWGQGTLVTVSS
VL: AIQLTQSPSSLSASVGDRVTITCRASQSISSYLAWYQQKPGKAPKLLIYRASTLASGVPSRFSGSGSGTDFTLTISSLQPEDFATYYCQQSYSSSNVDNTFGGGTKVEIK
B13: 2/99 VH15/VL7 (antibody, V domains shown)
VH: QQLQESGPGLVKPSETLSLTCTVSGFSLSSYAMSWVRQPPGKGLEWIGYIWSGGSTDYNPSLKSRVTISVDTSKNQVSLKLSSVTAADTAVYYCARRYGTSYPDYGDANGFDPWGQGTLVTVSS
VL: AIQLTQSPSSLSASVGDRVTITCRASQSISSYLAWYQQKPGKAPKLLIYRASTLASGVPSRFSGSGSGTDFTLTISSLQPEDFATYYCQQSYSSSNVDNTFGGGTKVEIK
B14: 2/99 VH9/VL7 (antibody, V domains shown)
VH: QQLLESGGGLVQPGGSLRLSCAASGFTFSSYAMSWVRQAPGKGLEWVGYIWSGGSTDYADSVKGRFTISRDNSKNTLYLQMNSLRAEDTAVYYCAKRYGTSYPDYGDANGFDPWGQGTLVTVSS
VL: AIQLTQSPSSLSASVGDRVTITCRASQSISSYLAWYQQKPGKAPKLLIYRASTLASGVPSRFSGSGSGTDFTLTISSLQPEDFATYYCQQSYSSSNVDNTFGGGTKVEIK
B15: 2/99 VH23-DANG/VL7 (antibody, V domains shown)
VH: QSMQESGPGLVKPSQTLSLTCTVSGFSLSSYAMSWIRQHPGKGLEWIGYIWSGGSTDYASWAKSRVTISKTSTTVSLKLSSVTAADTAVYYCARRYGTSYPDYGDANGFDPWGQGTLVTVSS
VL: AIQLTQSPSSLSASVGDRVTITCRASQSISSYLAWYQQKPGKAPKLLIYRASTLASGVPSRFSGSGSGTDFTLTISSLQPEDFATYYCQQSYSSSNVDNTFGGGTKVEIK
B16: 2/99 VH12/VL7 (antibody, V domains shown)
VH: QVQLQESGPGLVKPSETLSLTCTVSGFSLSSYAMSWIRQPPGKGLEWIGYIWSGGSTDYNPSLKSRVTISVDTSKNQFSLKLSSVTAADTAVYYCARRYGTSYPDYGDANGFDPWGQGTLVTVSS
VL: AIQLTQSPSSLSASVGDRVTITCRASQSISSYLAWYQQKPGKAPKLLIYRASTLASGVPSRFSGSGSGTDFTLTISSLQPEDFATYYCQQSYSSSNVDNTFGGGTKVEIK
B17: 2/99 VH5/VL7 (antibody, V domains shown)
VH: QSMEETGGGLIQPGGSLRLSCAASGFSLSSYAMSWVRQAPGKGLEWVGYIWSGGSTDYADSVKGRFTISRDNSKNTLYLQMNSLRAEDTAVYYCARRYGTSYPDYGDANGFDPWGPGTLVTVSS
VL: AIQLTQSPSSLSASVGDRVTITCRASQSISSYLAWYQQKPGKAPKLLIYRASTLASGVPSRFSGSGSGTDFTLTISSLQPEDFATYYCQQSYSSSNVDNTFGGGTKVEIK
B18: 2/99 VH1/VL7 (antibody, V domains shown)
VH: VQLVETGGGLIQPGGSLRLSCAASGFSLSSYAMSWVRQAPGKGLEWVGYIWSGGSTDYADSVKGRFTISRDNSKNTLYLQMNSLRAEDTAVYYCARRYGTSYPDYGDANGFDPWGQGTLVTVSS
VL: AIQLTQSPSSLSASVGDRVTITCRASQSISSYLAWYQQKPGKAPKLLIYRASTLASGVPSRFSGSGSGTDFTLTISSLQPEDFATYYCQQSYSSSNVDNTFGGGTKVEIK
B19: 2/99 VH22/VL7 (antibody, V domains shown)
VH: QSMQESGPGLVKPSQTLSLTCTVSGFSLSSYAMSWVRQHPGKGLEWIGYIWSGGSTDYASWAKSRVTISVDTSKNQVSLKLSSVTAADTAVYYCARRYGTSYPDYGDANGFDPWGQGTLVTVSS
VL: AIQLTQSPSSLSASVGDRVTITCRASQSISSYLAWYQQKPGKAPKLLIYRASTLASGVPSRFSGSGSGTDFTLTISSLQPEDFATYYCQQSYSSSNVDNTFGGGTKVEIK
B20: 2/99 VH11/VL7 (antibody, V domains shown)
VH: QQLLESGGGLVQPGGSLRLSCAASGFSLSSYAMSWVRQAPGKGLEWVGYIWSGGSTDYADSVKGRFTISRDNSKNTLYLQMNSLRAEDTAVYYCARRYGTSYPDYGDANGFDPWGQGTLVTVSS
VL: AIQLTQSPSSLSASVGDRVTITCRASQSISSYLAWYQQKPGKAPKLLIYRASTLASGVPSRFSGSGSGTDFTLTISSLQPEDFATYYCQQSYSSSNVDNTFGGGTKVEIK
B21: 2/99 VH20/VL7 (antibody, V domains shown)
VH: QSMQESGPGLVKPSQTLSLTCTVSGFSLSSYAMSWIRQHPGKGLEWIGYIWSGGSTDYAPSLKSRVTISVDTSKNQVSLKLSSVTAADTAVYYCARRYGTSYPDYGDANGFDPWGQGTLVTVSS
VL: AIQLTQSPSSLSASVGDRVTITCRASQSISSYLAWYQQKPGKAPKLLIYRASTLASGVPSRFSGSGSGTDFTLTISSLQPEDFATYYCQQSYSSSNVDNTFGGGTKVEIK
B22: 2/99 VH13/VL7 (antibody, V domains shown)
VH: QVQLQESGPGLVKPSETLSLTCTVSGFSLSSYAMSWIRQPPGKGLEWIGYIWSGGSTDYNPSLKSRVTISVDTSKNQVSLKLSSVTAADTAVYYCARRYGTSYPDYGDANGFDPWGQGTLVTVSS
VL: AIQLTQSPSSLSASVGDRVTITCRASQSISSYLAWYQQKPGKAPKLLIYRASTLASGVPSRFSGSGSGTDFTLTISSLQPEDFATYYCQQSYSSSNVDNTFGGGTKVEIK

These binders were tested against T1, human transferrin receptor (recombinant, for surface plasmon resonance) (human, UniProt P02786 89-760) (assay: SPR 25C).
T1 construct: also called huTfR; human transferrin receptor-biotinylated
T1 sequence (P02786 89-760 limits assumed): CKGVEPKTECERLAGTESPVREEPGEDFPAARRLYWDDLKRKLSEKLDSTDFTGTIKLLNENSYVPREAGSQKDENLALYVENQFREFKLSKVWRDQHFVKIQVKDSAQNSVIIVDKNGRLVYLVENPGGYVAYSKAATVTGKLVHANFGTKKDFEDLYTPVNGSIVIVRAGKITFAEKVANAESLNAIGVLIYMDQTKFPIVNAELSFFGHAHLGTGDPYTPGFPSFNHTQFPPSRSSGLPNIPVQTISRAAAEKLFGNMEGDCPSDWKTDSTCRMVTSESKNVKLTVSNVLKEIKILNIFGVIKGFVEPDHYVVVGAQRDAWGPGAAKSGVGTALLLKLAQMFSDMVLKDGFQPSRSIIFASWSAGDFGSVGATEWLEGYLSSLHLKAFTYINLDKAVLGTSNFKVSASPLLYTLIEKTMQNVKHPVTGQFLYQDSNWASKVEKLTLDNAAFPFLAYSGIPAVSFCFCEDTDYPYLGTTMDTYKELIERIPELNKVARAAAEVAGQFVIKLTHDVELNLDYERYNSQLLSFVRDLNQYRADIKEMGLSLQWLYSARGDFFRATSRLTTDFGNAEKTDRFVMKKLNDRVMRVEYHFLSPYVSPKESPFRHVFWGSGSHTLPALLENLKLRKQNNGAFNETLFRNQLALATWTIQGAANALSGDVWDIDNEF

B1 and B2 are within 1.5-fold of each other in koff: 0.00207 s⁻¹ for the first, 0.00233 s⁻¹ for the second.

First: B3
Second: B4
The koff of the first is 2.1-fold lower: 0.00231 s⁻¹ for the first, 0.00485 s⁻¹ for the second.

Compared with B5, B6 is 1.7-fold higher in koff: 0.00214 s⁻¹ for the first, 0.00366 s⁻¹ for the second.

Going from B7 to B8, the koff falls from 0.0075 s⁻¹ to 0.00238 s⁻¹ (3.2-fold).

B9 and B10 are within 1.5-fold of each other in koff: 0.00525 s⁻¹ for the first, 0.00766 s⁻¹ for the second.

Compared with B11, B12 is 5.6-fold higher in koff: 0.001 s⁻¹ for the first, 0.00563 s⁻¹ for the second.

B13 and B14 are within 1.5-fold of each other in koff: 0.00543 s⁻¹ for the first, 0.00761 s⁻¹ for the second.

Going from B15 to B16, the koff rises from 0.00155 s⁻¹ to 0.00771 s⁻¹ (5-fold).

B17 and B18 are within 1.5-fold of each other in koff: 0.00697 s⁻¹ for the first, 0.00733 s⁻¹ for the second.

First: B19
Second: B20
The koff of the first is 2.3-fold lower: 0.00337 s⁻¹ for the first, 0.00781 s⁻¹ for the second.

B21 and B22 are within 1.5-fold of each other in koff: 0.00714 s⁻¹ for the first, 0.00668 s⁻¹ for the second.
